Data as given in article PMC4882731 (Journal of the American Chemical Society, 2016).

Tests used:
[1] = biological target: ChlI, C-terminally attached to the surface via His6 tag (Synechocystis) (UniProt P51634); test: single molecule force spectroscopy
ChlD wild-type = ChlD wild-type (Synechocystis, UniProt P72772 1-676); test: MST
ChlD R289A = ChlD R289A (Synechocystis, UniProt P72772 1-676, R289A); test: MST
ChlD R208A = ChlD R208A (Synechocystis, UniProt P72772 1-676, R208A); test: MST
Sequence of ChlD R208A (P72772 whole entry R208A): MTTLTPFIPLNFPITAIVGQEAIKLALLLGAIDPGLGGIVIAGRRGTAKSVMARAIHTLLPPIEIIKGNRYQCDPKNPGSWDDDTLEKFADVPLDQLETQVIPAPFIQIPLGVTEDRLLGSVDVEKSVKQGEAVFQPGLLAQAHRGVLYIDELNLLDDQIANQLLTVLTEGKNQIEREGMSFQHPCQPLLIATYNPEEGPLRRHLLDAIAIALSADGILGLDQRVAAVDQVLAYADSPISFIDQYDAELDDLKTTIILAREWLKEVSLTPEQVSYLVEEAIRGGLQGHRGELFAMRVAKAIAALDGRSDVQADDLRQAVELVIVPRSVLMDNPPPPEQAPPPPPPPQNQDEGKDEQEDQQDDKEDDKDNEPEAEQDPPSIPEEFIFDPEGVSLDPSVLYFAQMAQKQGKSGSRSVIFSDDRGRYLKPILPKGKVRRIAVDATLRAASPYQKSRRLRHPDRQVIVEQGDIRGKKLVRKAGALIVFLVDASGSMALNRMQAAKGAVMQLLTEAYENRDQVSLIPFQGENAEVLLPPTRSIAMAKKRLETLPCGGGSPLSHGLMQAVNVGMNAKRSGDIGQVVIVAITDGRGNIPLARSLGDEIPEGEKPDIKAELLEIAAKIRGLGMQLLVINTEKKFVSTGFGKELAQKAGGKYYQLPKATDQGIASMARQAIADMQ

Sequence of ChlD wild-type (P72772 whole entry): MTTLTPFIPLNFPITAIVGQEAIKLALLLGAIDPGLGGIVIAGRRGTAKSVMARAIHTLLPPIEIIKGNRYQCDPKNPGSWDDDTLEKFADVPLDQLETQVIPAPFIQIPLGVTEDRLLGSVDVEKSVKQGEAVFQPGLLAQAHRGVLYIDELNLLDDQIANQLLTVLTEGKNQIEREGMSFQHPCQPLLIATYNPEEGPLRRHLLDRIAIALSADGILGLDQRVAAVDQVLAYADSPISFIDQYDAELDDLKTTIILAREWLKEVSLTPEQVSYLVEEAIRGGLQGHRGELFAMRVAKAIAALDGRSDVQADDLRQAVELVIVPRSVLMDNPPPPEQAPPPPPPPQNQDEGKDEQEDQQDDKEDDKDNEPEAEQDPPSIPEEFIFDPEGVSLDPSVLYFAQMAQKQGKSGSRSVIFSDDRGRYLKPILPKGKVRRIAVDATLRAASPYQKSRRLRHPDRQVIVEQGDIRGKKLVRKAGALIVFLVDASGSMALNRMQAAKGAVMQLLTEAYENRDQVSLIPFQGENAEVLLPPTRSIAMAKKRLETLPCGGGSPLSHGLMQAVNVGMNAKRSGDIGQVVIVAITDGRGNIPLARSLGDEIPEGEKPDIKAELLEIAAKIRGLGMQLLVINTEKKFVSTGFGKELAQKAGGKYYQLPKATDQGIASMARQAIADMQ
Sequence of ChlD R289A (P72772 whole entry R289A): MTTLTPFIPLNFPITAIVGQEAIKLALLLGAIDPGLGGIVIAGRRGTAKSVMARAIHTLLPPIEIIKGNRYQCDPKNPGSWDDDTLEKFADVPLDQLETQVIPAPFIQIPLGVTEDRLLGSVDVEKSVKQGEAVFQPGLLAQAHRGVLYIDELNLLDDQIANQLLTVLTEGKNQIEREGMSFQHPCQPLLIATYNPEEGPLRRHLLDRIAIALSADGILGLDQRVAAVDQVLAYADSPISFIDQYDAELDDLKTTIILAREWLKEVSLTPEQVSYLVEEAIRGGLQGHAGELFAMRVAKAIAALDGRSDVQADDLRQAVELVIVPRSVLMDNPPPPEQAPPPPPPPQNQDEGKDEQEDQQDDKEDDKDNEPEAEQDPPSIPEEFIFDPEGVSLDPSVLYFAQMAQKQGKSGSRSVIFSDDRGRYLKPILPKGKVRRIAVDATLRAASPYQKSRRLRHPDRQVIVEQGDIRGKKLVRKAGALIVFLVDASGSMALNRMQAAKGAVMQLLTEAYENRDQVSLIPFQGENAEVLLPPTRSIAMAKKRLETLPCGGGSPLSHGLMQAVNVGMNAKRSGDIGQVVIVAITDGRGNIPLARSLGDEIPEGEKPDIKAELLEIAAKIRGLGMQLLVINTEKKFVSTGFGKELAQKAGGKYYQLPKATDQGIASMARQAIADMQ

interaction probability [1] | modal interaction force [1] | rupture force [1] | Kd (ChlD wild-type) | Kd (ChlD R289A) | Kd (ChlD R208A) | Molecule
30.5% | 108 pN | 109 pN | – | – | – | ChlD tagged at the C-terminus with a His6 sequence (from UniProt P72772 1-676) (natural protein)
– | – | – | 0.0076 ± 0.0008 µM | 2.54 ± 0.219 µM | 0.328 ± 0.0677 µM | ChlI C244S Alexa Fluor 488 (natural protein, Synechocystis, UniProt P51634 1-357, looked up, Alexa Fluor 488 C5 maleimide label (labelled residue not stated)) MTATLAAPSKTRRVVFPFTAIVGQDEMKLALLLNVIDPKIGGVMIMGDRGTGKSTTIRALADLLPEIEVVANDPFNSSPSDPEMMSEEVRIRVDSQEPLSIVKKKVTMVDLPLGATEDRVCGTIDIEKALSEGVKAFEPGLLAKANRGILYVDEVNLLDDHLVDVLLDSAAGGWNTVEREGISIRHPARFVLVGSGNPEEGELRPQLLDRFGMHAEIRTVREPELRVKIVEQRTEFDQNPHPFSDQYQTEQEALQAKIVNAQNLLPQVTIDYDYRVKVSEVCAELDVDGLRGDIVTNRAAKALAAFEGRTEVTVDDISRVIVLCLRHRLRKDPLESIDSGSKVEKVFKRVFGVVDEA
